In patent JP2000515494A:
Substitutions are numbered along the chain they refer to. Several values for one entry are separate records, joined by “and”; a condition that tells them apart may be missing. Equal values may be shown once.

Experiments:
[1] = target: 組換えヒトIL-5 (recombinant human interleukin-5) (human) (UniProt P05113); assay: optical biosensor (BIAcore)
[2] = target: 組換えヒトIL-5 (recombinant human interleukin-5) (human) (UniProt P05113); assay: cell-based or functional assay
[3] = target: hIL-5/IL-5レセプターα鎖複合体 (hIL-5 captured on IL-5RαFc) (human) (UniProt P05113); assay: ELISA (europium fluorescence), IL-5RαFc on protein A + IL-5, mAb added; concentration 8 ng/ml
[4] = target: hIL-5/IL-5レセプターα鎖複合体 (hIL-5 captured on IL-5RαFc) (human) (UniProt P05113); assay: ELISA (europium fluorescence), IL-5RαFc on protein A + IL-5, mAb added; concentration 2 ng/ml
[5] = target: hIL-5/IL-5レセプターα鎖複合体 (hIL-5 captured on IL-5RαFc) (human) (UniProt P05113); assay: ELISA (europium fluorescence), IL-5RαFc on protein A + IL-5, mAb added; concentration 32 ng/ml
[6] = target: hIL-5/IL-5レセプターα鎖複合体 (hIL-5 captured on IL-5RαFc) (human) (UniProt P05113); assay: ELISA (europium fluorescence), IL-5RαFc on protein A + IL-5, mAb added; concentration 0 ng/ml
[7] = target: 組換えヒトIL-5 (recombinant human interleukin-5) (human) (UniProt P05113); assay: optical biosensor
[8] = target: 組換えヒトIL-5 (recombinant human interleukin-5) (human) (UniProt P05113); assay: inhibition of 125I-IL-5 binding to IL-5Rα (Drosophila membranes), dose dependent

B1: ネズミモノクローナル抗体2E3 (antibody, from another filing, mouse IgG2a, V domains shown)
VH: PGLVAPSQSLSITCTVSGFSLTSYSVHWVRQPPGKGLEWLGVIWASGGTDYNSALMSRLSISKDNSKSQVFLKLNSLQTDDAAMYYCARDPPFSLLRLDFWGQGTTLTVSS
VL: SSLSVSAGEKVTMSCKSSQSLLNSGNQKNYLAWYQQKPGQPPKLLIYGASTRESGVPDRFTGSGSGTDFTLTISSVQAEDLAVYYCQNDHSFPFTFGSGTELEIK
Kd [1]: 0.02 nM and < 0.035 nM | ネズミB13の増殖の阻害 (B13 proliferation assay) [2]: > 70%

B2: ネズミモノクローナル抗体2F2 (antibody, from another filing, V domains shown)
VH: B1 VH with Q78R, A82T, F93S, F100Y
VL: B1 VL
ネズミB13の増殖の阻害 (B13 proliferation assay) [2]: > 70%

B3: ネズミモノクローナル抗体2B6 (antibody, from another filing, V domains shown)
VH: QVQLKESGPGLVAPSQSLSITCTVSGFSLTSYSVHWVRQPPGKGLEWLGVIWASGGTDYNSALMSRLSISKDNSKSQVFLKLNSLQTDDTAMYYCARDPPSSLLRLDYWGQGTTLTVSS
VL: DIVMTQSPSSLSVSAGEKVTMSCKSSQSLLNSGNQKNYLAWYQQKPGQPPKLLIYGASTRESGVPDRFTGSGSGTDFTLSISSVQAEDLAVYYCQNVHSFPFTFGSGTELEIK
結合(個数) [3]: 3200 個数 | 結合(個数) [4]: 2940 個数 | 結合(個数) [5]: 4980 個数 | Kd [1]: 0.022 nM and < 0.035 nM | ネズミB13の増殖の阻害 (B13 proliferation assay) [2]: > 70% | 結合(個数) [6]: 2770 個数

B4: mAb 2B6から由来のFab (recombinant 2B6 Fab, hexa-His) (Fab, from another filing, V domains shown)
VH: B3 VH
VL: B3 VL
Kd [7]: 0.09 nM | IC50 [8]: 7.5 µg/mL
